Laboratory results: PMC10128030, “Molecular Characterization of the ClpC AAA+ ATPase in the Biology of Chlamydia trachomatis” (mBio, 2023)
“And” between values parts separate entries of the source, which are not always exact repeats. Equal entries are not always repeated.

Molecular target: the molecule itself
Assay: cross-linking; HeLa cells infected with C. trachomatis L2 (wild type or transformants induced at 16 hpi) treated with 0.25 mM DSS in HBSS pH 7.6 on ice at 4°C for at least 1 h; whole-cell lysates on 8% SDS-PAGE, immunoblot with anti-ClpC (endogenous) or anti-6×His (ectopic)

B1: endogenous ClpC of wild-type C. trachomatis serovar L2 (natural protein)
chain: not shown
notes: ClpC AAA+ ATPase of Chlamydia trachomatis serovar L2; monomer of the expected size 95 kDa; source: endogenous, wild-type Ctr L2 in infected HeLa cells, whole-cell lysate
- stoichiometry N: 2 and 6
